# Experimental data taken from the DeepSol protein solubility set.
# Test: soluble on expression in E. coli; label from the status in PepcDB or PDB records
row,Sequence,soluble on expression in E. coli
1,MGSDKIHHHHHHMYKNSMVIGKFYPPHAGHAHLINTAAAQSENVSVLVLGNRFESITVADRTTWLAAEFEDIAGVHVIGMPNDCPEDYDSEEIWKAQSELMRLALKTHGVTEVEAVFSSEEYGAQLAQAFGAEHVLVDQSRTTFPISGTLCRDDLGSAWPFIIGPARQGLATRIILVGAESSGTSTLAKALTEHYRPRFPGITDVPEYGRDYTYEKFDALRAKMPEAVLEDMVWNEQDFGRIATRQNEMENAAADACPLVIADTDSLATTLWERFYIGERSYGSYLAASNLPPRDLYLITDHEGVEFEDDGWREGEHRRAEMTEWFKEALTAEGHSWILVSGDHERRKQTAVEIIELILMQRSKFTSPPWATRTVLEGAAV,not soluble
2,MGSDKIHHHHHHMYSCYNNFVKYALTMQFDIEVDVMYEVKLDAFNGPLDLLLHLIQKYEIDIYDIPMKALTEQYMQYVHAMNQLEINVASEYLVMASELLMIKSKLLLPQTSIEEDIEEDPREDLVGRLIEYQNYKEYTEILNTMKEERDLYFTKHPTDLTHLETNESWDPNQTIDLTELIVAYQRVKNRVELNTPKSVEIKKETFTIQQATAQVTERLKQHESFNFFSLFTFHEPVEQVVTHFLAILEMSKSGIVNIKQTKQFDDIDIIRGVNYSIG,not soluble
3,MGSDKIHHHHHHMYSIVEGDRVLEIGFMEHFMFLDFPTLVDIPIGLPKKGERECDRLTRRILSKRAASVFTVPCRVAVYRESYEDALRVNRECQGKGFPVQFWHIVEKVREVDVFLRSYPDLSDQIRESHPELCFLRISSKMMKSKHTREGLNQRIEILREHLVFDVENLQRICREYRIHIHDVLDSLVLALAQQFPLERIPEDPPLDEHGLPMQIIAPARTQRSPNPE,not soluble
4,MGSDKIHHHHHHMYVENACYQKAILPEHVGNALIESLPKKLTDEELVDKLANYPKCLTEDTQNDPEIRAEYLTRIKRLRQPQLVYFDVFRAVEIAIKDGYSAKNPLSPTTMNYLHYSLEDRPIIEPNTGFFKPKGCGITIIGESGVGKTSMLEQVLSIYPDVIKHQSYSGMSLPLTQVVWLKVDCPDDSSVKGLCHRILDEIDRKLDIKDTKPQNTIALLIKQIEAKMKSNYLGILVIDEMQNLNTAKAGGAERLLGFLHNLMNNLGIPILFCANPPFDKLLSKTLKAARRAESGGYFDIGLLKNSEDEWGLFVDELWKLQWTNVQTPLTQDLSDRLFNLSVGNMDLAVRIFYASQRAVIGSLNERITTDVLDKGASIAIRASKSTTDELRLSLLKRKNESKKETPNNEASEEAKVITESKGKFVTIPGDLSRPHHPEFAERITELQYEDDLHALIEDPALIQRASEEEHPLDMLKSAGLFCEDPLKTFG,not soluble
5,MGSDKIHHHHHHNEEIEKAVQPVEISFNTAVSKTTRATTLVNSAFTKFTAYAYSTTGAFADATKVNALISGAEFTKGENSAWGSGNSVFYWPATDQVSFFAFSPNTTKQLSWGAAVANTAPTLTYTVEGTVEKQEDLVVAEAMNKQKATSGSTEAVALNFKHALTKVGFKIKGEGSGVTYTLNKIVINAKNKGVYTYGATSTTNETTLGTWTIPSDATATAYTVEPTEALSITGADNGGTANETLVEADYTAMLIPQNLTGVTFEIYYKAEAGGAILCDKTTTPEEITFTDGTWTAGQSVAYVLTLKGVEKMSITGSVADSWDFTETPK,not soluble
6,MGSDKIHHHHHHQEGRSDPLEGFNRTMFNFNYDVLDPYVVRPAAVAWRDYVPTPARNGLGNFFNNLEEPATMVNYFVEGKPYKAMIHFNRFFLNTLLGMGGLIDVASMANPKLAKEESRRFGSTLGNYGVGYGPYVVLPGYGSVTPREDGGGVADTLYPMLSYLTFWMSAGKWAIEGLETRAQLLDSDGLLRNSSDPYLMIREAYFQRHDFLASDGQIAPQQNPNAAAIEDSLDEIDSAK,not soluble
7,MGSDKIHHHHHHQIAPAPSTGYNCDLALYSVPQANLLARSLQGDTVADQQYRQLVRELAMELRNCRQQVWPRKMAIWVRLYSCDLRPGGLDSLFDGLQALGYNEVFIETFYDGRVLLPAADNPTVWPSVVAEPGLERVDLLAEAIRKGRERGMSVYAWLFTLNYGYSYSQRSDRQDTLARNGRSESSLEIVSGGAQVFVDPFNPVARQDYQTLLRSVLSRRPDGVLFDYVRYPRGTGAASVMTKVADLLIHTTAARQAWINQLNTPAGQALLTEYLDTGRLSPSDRNQLVLLLGDRLKELNLRQDVDPLWSLAVYHAWRGVVEFVDEAVGTVAQAGLPSGAVFFPFGNARVGQQGWDSRMQPWDRFPNSMEYHPMSYALCGDRHDCVMAEVQRVLEAKPNSIVQPAIAGTWGANFNAHLPLEQRMAALRSTFGDRIDRVSHFSLAWMDPQGERQRQRCRL,not soluble
8,MGSDKIHHHHHHQISGDTVKIGFITDMSGLYADIDGPGGVEAIKLAISDMKGTVAGKKIELVYADHQNKADVAASKAREWFDTQGVDMLIGGTNSGTALAMTKVAAEKKKPFIAIGAGTSRISNEDCTPYSIHYAYDTVALANGTGSAVTKAGGKSWYFLTADYAFGQSLQNDTSNVVTKSGGQVLGSVKHPLSASDFSSFLLQAQSSKAQILGLANAGGDTINSIKAANEFGITKTMKLAGLLMFINDIHSLGLNATQGMYMTDSWYWNQSPEARAWSRRFFEKMKRMPSSIQAADYSAAMHFLKAVEAAKTDDGDKVMAQMKAMPINDFYAKGSIRKEDGRGIHDMFLLQVKSQQESTEPWDYFKVVEKIPGEQAFTKLADSKCPLVKK,not soluble
9,MGSDKIHHHHHHQSGPLRLEITEGVIEPLPFALPTFLAVGGAEDAAADVSRVIAADLRGTGLFRQIPPDAYISQITNFGAPVAYPDWQAINAQALITGQVEARADGQLVVRFRLFDVFSQAPLGEGLQFVGPADSWRRMAHTVADQVYSRITGEGGYFDTRVAFIAEEGPKNARLKRLAIMDYDGANVQFLTDSRSIVLAPRFSPQGDRILYTSYESGFPQVYIMDVATVQRRPLEAIPAETMTFSPRFSPSGQSVVFSLVDGSNTDIYSLDLATGTRRQLTQAPSIETAPSFSPDGSQIVFESDRSGNQQIYIMPADGGEARRVSAGTGRYGTPVWSPRGDYIAFTKQENGRFHIGVMRTDGSDERLLTSSFLDEGPTWAPNGRVIMFTRETPGDDGAPAVYSVDISGRNLQRVATPGMASDPAWSPLQS,not soluble
10,MGSDKIHHHHHHRDMEIGDSGNVEIEMGEAAFVLKTSLSSLETKSLSDAGTLPASMDEAEINNCTLIFFEGTQVSSIMEGLFVNKENYIVKTKDGTKDDWAKVILKVKKPSPYSVMVIANSSKSFAGCQSENNIKDIIQDDKDALVKVGKMDISFDTDFAGYPTIAEALGKPLEIGAIPLSQLTARIELAEFNVSGFQGASVKEKVTVTGVDLLNLNPESYTINEQTHKNATYLSESKTCNVEVYNGVSDLPSTYSFVDNKNLLSFYSFRNLAKAESDQVKMQVRFKIGNSNEERTTRPFVINKEGNILHGVKSGYVYRLVVNMTIIGDKVETELLCYTRDWLNNTISIPMEDN,not soluble
11,MGSDKIHHHHHHRPYTPDYEIVPEYTNADTWKAYEAFNEHLLDQNKFIYKSSTADKAAVDRWNGAAAIWCQPTYWDMAMNAYKRAKAEGDTQKEQKFKQLCDDLFAGNKAHYANFDFDDNNENTGWFIYDDIMWWTVTLARAYELFGVEEYLSLSEESFGRVWYGSEKVGDTGSYADPEKGLGGGMFWQWQPIKNPNPNEADHGKMACINFPTVVAALTLYNNVPTGRTESTDSHPSYQTKEQYLAKGKEIYAWAVENLVDVTTGQVADSRHGNGNPAWKDHVYNQASYIGASVLLYKATGEKQYLDNAVMAADYTMNTISGTFDLLPFETGAEQGIYTAVFAQYIAMLVYDCDQTQYIPFVKRNINYGWANRDKTRDICGGDYTKLQVEGDAVESYSASGIPALMLLFPTDK,not soluble
12,MGSDKIHHHHHHRWIPGSRDFDSWLVTLHAQLLAEVDYPRELRMAQVMTEGLAQHEALQSAPVTLRVPHFWPEHCSTNVLTMDYVEGHRAASPEVAALPQSARNELGKAMLQLFFAEVFDLGLVQTDPNFGNYLINDDGTELTLLDFGSVFELDETVRTALCDTIVAGLTNDETRLELALVALGCLKPGAGESAKATFKAFIRNLLEPLRPPEALPPEHLNAEGLYCWGHSELVNRTGQQVARSLTNREFAIPSSDFAMVARKLTGVFTFIAVLDAEFNGHDIAAPYLDEVTAGGET,not soluble
13,MGSDKIHHHHHHSCENEFDVSDKADSLISVTVNTLNNQAAYNVGETAQAELWIQRGGLKDASGKVQFVVDPLLLDSLNQEDKTNYELLPENCYEMTNTEFTVDKNELCGYITYHPEKILALSAYNETKYVLPLRLISNDLAINPARNTSFLAFTILEPIVHISNAGVYNINPDLTSTMDIQIGVPFTNKWDILCNLTEDLSLIDEYNQINKVNFTLLPENAYTAPESVTLQEGVSQITASYQLKNNLVPGNYILPIKIGSITASQGGVPNNSLVIDEESNVLFCIVKEGNKINKSGWEVIECSSEHAGNEATYMIDDNESTYWHCKFKNEAGSSVPPFHFIIDMKKEITIAQIDLLNRGDGAANNIKWVEFYASNNNSEWDKIGAGDFNDEGTRATFRYYVKSTKARYLKLIIPEGYGNNCPPAAIRELTVYGLEGNN,not soluble
14,MGSDKIHHHHHHSSDDKDEQPILVTNVVMPASGTVFKPGEKVTIMAKGFQDNDEIMFDIRWPLQDEVLHEGYAKGGRGVITEKTATSITFLAPGHWPASTTEILLRRSGQMMSLGKISVADGQAPKDFQLYGIINSRSNTHRPHAIEYINLEKPQTAEIVRLADNQDFSCVVNLPGSWSLSGVWTKDDRRTTGLYDLSMNYWEKPGADQLVTMGIATANSVFGVYQGGDRLFVKTVNVMPYTRMYVPEKPDYGFLLPEGMKAEALSRYPCIQMSDGNILCSADNGDGTFSPVVLNGQNIEEKSIYVGEPIEAVALIPFWIVKPVEGMGTAKYTRVGGYIVSKRNGATITEGDGTEFRLWNPTTKMLDEPFTTFPNAACLVATLVSDDFKKQELYVLFDGSRNGRLIYVYDLLKGSWESLYPGGGFPYSEIVLAR,not soluble
15,MGSDKIHHHHHHTVQNAQLSQQHAPCVDNKWPKSRLLSLAGSQFEMTDADRNDMVMRLISCLADTDPELRDAVAFSGLSHWLRANDLTNETVKSLYTKLSGDVRKRKDDPNGVYLPFAILTLSEVARVDRVSPFFEPAERDALSKLAADTMAGIQDYRGFDETIGWRHQVAHSADLLLQLVLNPALSSDDIMELVTSIQHQLSPAGHFYVYGEPERLARPVLYAMLRDDIPDSFWHSQLARWSTPVHIEGWDKAFSSNAGLAERHNRRAFFSALLLGISGSKQPRLLALQPAIQAAMKKLP,not soluble
16,MGSDKIHHHHHHVEASYAQRLRQEKGYAYADNCNTKTSLSIKMSMVLLTPTVSSNFEKDSLIYMAKKIHFISNSIVKEINNSDNVSILVLDKEEIISLFKANGILLFRGFDVDVDIFKEFTNLLSIDFINYAGGAFSRRVINGDQTVLSVNDFKSEIKLHGEMYYQKNIPLMLWFFCANPPLEDGETTVCDGRQFFHEISSSTKELFRQKNLKFTVRMSKEDWQKKYKTDDVNQLKEICRNNNTHLKIFDDRSIMLEYISPAIIPSRCGNYQVFINSLLPTKQLSPNILKFEDDSDIPEEVVSELNEIAEKITTEISWRKGDILMIDNTRILHGRRSFADDQRDIYIRLCSPAFSF,not soluble
17,MGSDKIHHHHHHVEDLKNLTNQAVEKQPEIVKRFNEMIDSQHLSHAYLLTGAGGIGKKDVAQWVAMRLFCIDLQGSMPCGECEECTRIMSGQHPDVVEIAPDGQSIKVEQVRFLKSEFSKSGVEGARKVFIIEQANKMTTSAANSLLKFIEEPSGEVTAFLLAENRSLMLPTIVSRTEIIELKPLPKDRLIKELTEQNIAETDARILTRLTNDMSEIQTLVDNNWILDAHKALEKWFITATTGDITAFVDVQTRVMALAKDRFYQEKILDLMMLYAMDLLELKFDQETITYEANRRQLQELADQTNVRQLLAVADVLLPLKHQLSQNLNFQSVVEKATIKICNIFKMRGR,not soluble
